Results taken from patent publication US20220195063A1 (BYONDIS B V, published 2022).
Residue numbers refer to the chain shown, from its start. Values belong to the molecule of their own block, whether it stands above or below them.

What was measured:
[1] = target: human SIRPαBIT (huSIRPαBIT), protein antigen (human) (UniProt P78324); assay: SPR, biotinylated antigen captured, 25 C
[2] = target: T1, human SIRPα1 (huSIRPα1), protein antigen (human, UniProt P78324 31-370, limits assumed, biotinylated in the SPR assay); assay: SPR, biotinylated antigen captured, 25 C
T1 construct: Coated on the plate in ELISA, biotinylated and captured in SPR; also called v2
Experimental: (§1) Surface Plasmon Resonance (SPR) assay: Affinity analysis was performed by single cycle kinetics analysis on a Surface Plasmon Resonance apparatus (Biacore T200 system, GE Life Sciences) at 25° C. Biotinylated SIRP antigens were captured on the surface of a chip suitable for biotinylated molecules (Sensor Chip CAP, GE Life Sciences) by injecting 5 μg/ml of the SIRP antigen in running buffer (10 mM HEPES buffer at pH 7.4 with 150 mM NaCl, 3 mM EDTA and 0.005% v/v polyoxyethylene (20) sorbitan monolaurate (Surfactant P20) for 60 sec at 10 μL/min after injection of a streptavidin conjugate (20× diluted biotin CAPture reagent, GE Life Sciences) for 60 sec at 10 μl/min. Baseline stabilization was set at 1 min after which five increasing concentrations of an anti-SIRP antibody in running buffer (10 mM HEPES buffer at pH 7.4 with 150 mM NaCl, 3 mM EDTA and 0.005% v/v polyoxyethylene (20) sorbitan monolaurate) were injected. For each step an association time of 150 sec was used, followed by a dissociation time of 1200 sec at the highest concentration only, all at a flow rate of 30 μL/min. Regeneration was performed with 6 M guanidine-HCl, 0.25 M NaOH solution (60 sec with flow rate of 30 μL/min). Double blank subtraction was performed on the observed sensorgrams using a non anti-SIRP (blank) immobilized reference flow channel and running buffer injection. Sensorgrams were fitted with a 1:1 Langmuir model for all tested anti-SIRP antibodies. The kinetic parameters (kₐ, kd and KD) were calculated using the Biacore T200 evaluation software (v3.1).

human SIRPγ (huSIRPγ) [3] = target: T2, human SIRPγ (huSIRPγ) (human, UniProt Q9P1W8 29-360, limits assumed, biotinylated in the SPR assay); assay: SPR, biotinylated antigen captured, 25 C
T2 construct: Coated on the plate in ELISA, biotinylated and captured in SPR
Experimental: as §1

[4] = target: human SIRPαBIT (huSIRPαBIT), protein antigen (human) (UniProt P78324); assay: ELISA, antigen coated
[5] = target: T1, human SIRPα1 (huSIRPα1), protein antigen; assay: ELISA, antigen coated
Experimental: (§2) ELISA assay: Solutions of huSIRPα₁, huSIRPαBIT, huSIRPβ₁ᵥ₁, huSIRPβ₁ᵥ₂, huSIRPγ and cySIRPα in phosphate buffered saline (PBS) were each added to a multiple well black polystyrene plate for ELISA and allowed to adhere for 1 h at RT. Unbound protein was removed with three washing steps using standard washing buffer. Subsequently, blocking buffer was added to the wells. After 1 h incubation at RT, the wells were washed three times with standard washing buffer. The antibodies in buffer at various concentrations were added to the wells and incubated at RT for 1 h. Unbound antibodies were removed with three washing steps using standard washing buffer. Goat anti human IgG (Fab′)₂:horse radish peroxidase (HRP) in buffer was added to the wells and incubated at RT for 1 h. 3,3′,5,5′-Tetramethylbenzidine (TMB) was added and after sufficient colour development HCl was added. Absorbance was read at 450 nm/620 nm.

[6] = target: T3, human SIRPβ1v2 (huSIRPβ1v2) (human, UniProt Q5TFQ8 30-371); assay: ELISA, antigen coated
T3 construct: Coated on the plate in ELISA; Only the Ensembl protein number is printed; also called huSIRPß1v2
Experimental: as §2

human SIRPγ (huSIRPγ) [7] = target: T2, human SIRPγ (huSIRPγ); assay: ELISA, antigen coated
Experimental: as §2

[8] = target: T4, cynomolgus SIRPα (cySIRPα), protein antigen (cynomolgus monkey, UniProt A0A2K5VYQ9 31-369); assay: ELISA, antigen coated
T4 construct: Coated on the plate in ELISA
T4 sequence: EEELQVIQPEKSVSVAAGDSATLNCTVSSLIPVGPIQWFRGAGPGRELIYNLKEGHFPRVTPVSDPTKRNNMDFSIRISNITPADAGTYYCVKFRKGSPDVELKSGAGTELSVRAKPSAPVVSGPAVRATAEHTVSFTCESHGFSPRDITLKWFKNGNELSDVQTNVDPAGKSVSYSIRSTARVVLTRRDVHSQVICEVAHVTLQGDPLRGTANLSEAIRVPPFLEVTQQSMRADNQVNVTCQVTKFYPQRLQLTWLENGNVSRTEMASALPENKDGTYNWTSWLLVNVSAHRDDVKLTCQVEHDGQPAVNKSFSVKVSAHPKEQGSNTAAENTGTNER
Experimental: as §2

[9] = target: human SIRPαBIT expressed on cells (human) (UniProt P78324); assay: flow cytometry, U937 cells
[10] = target: human SIRPβ1v1 (huSIRPβ1v1) (human) (UniProt O00241); assay: ELISA, antigen coated
[11] = target: human SIRPαBIT expressed on cells (human) (UniProt P78324); assay: flow cytometry, ExpiCHO-S cells
[12] = target: T5, cynomolgus SIRPα expressed on cells (cynomolgus monkey, UniProt A0A2K5VYQ9 31-507); assay: flow cytometry, ExpiCHO-S cells
T5 construct: whole, on cells; also called ExpiCHO-S (cySIRPα)
T5 sequence: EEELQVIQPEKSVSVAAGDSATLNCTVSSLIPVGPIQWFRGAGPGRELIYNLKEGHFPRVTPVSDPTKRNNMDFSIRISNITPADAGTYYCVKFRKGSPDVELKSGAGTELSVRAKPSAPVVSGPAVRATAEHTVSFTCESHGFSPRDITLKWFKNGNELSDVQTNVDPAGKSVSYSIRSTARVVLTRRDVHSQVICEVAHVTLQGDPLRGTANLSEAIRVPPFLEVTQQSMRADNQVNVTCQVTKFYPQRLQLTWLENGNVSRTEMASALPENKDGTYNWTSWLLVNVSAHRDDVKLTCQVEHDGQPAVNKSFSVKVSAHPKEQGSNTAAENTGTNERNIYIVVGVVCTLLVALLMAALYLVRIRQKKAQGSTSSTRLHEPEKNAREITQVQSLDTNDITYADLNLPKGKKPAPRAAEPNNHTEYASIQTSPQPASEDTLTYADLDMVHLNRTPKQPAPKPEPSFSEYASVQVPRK
Source text: Flow Cytometry: U937 cells endogenously expressing human SIRPαBIT antigen and cells derived from a non-engineered subclone that has been screened and isolated from CHO-S Chinese hamster ovary cells (ExpiCHO-S) cells expressing human SIRPα₁, SIRPαBIT or cySIRPα antigen (100,000 cells/well in a 96-well plate) were washed three times with ice-cold FACS buffer (1×PBS (LONZA) containing 0.2% v/w BSA (Sigma-Aldrich, St. Louis, Mo.) and 0.02% v/w NaN₃ (Sigma-Aldrich), followed by the addition of a concentration range of each primary mAb (50 μL/well) diluted in ice-cold FACS buffer. After an incubation time of 30 min at 4° C., the cells were washed three times with ice-cold FACS buffer and 50 μL/well secondary mAb (AffiniPure F(ab′)₂ fragment Goat-anti-human IgG-APC, 1:6,000 dilution, Jackson Immuno Research) was added. After 30 min at 4° C., cells were washed twice and resuspended in 150 μL FACS buffer. Fluorescence intensities were determined by flow cytometry (BD FACSVerse, Franklin Lakes, N.J.) and indicated as the median fluorescence intensity (MFI-Median) for U937 cells and ExpiCHO-S cells. Curves were fitted by nonlinear regression using the sigmoidal dose-response equation with variable slope (four parameters) in GraphPad Prism (version 7.02 for Windows, GraphPad, San Diego, Calif.). EC₅₀ values were calculated as the concentration in μg/mL that gives a response half way between bottom and top of the curve, when using a 4-parameter logistic fit.

Chain of human SIRPαBIT (huSIRPαBIT), protein antigen (human) (P78324 31-370): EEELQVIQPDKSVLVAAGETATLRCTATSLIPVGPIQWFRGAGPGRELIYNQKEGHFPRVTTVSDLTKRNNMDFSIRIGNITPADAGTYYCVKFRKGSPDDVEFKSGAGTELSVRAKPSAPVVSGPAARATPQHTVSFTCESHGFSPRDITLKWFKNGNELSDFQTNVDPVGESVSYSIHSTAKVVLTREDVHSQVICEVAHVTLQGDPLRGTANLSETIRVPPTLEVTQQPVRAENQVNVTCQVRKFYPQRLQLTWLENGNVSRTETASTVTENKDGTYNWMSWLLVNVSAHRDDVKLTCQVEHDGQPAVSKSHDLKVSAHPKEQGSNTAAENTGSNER
T1 sequence (P78324 other isoform, or with tags, fused parts or gaps limits assumed): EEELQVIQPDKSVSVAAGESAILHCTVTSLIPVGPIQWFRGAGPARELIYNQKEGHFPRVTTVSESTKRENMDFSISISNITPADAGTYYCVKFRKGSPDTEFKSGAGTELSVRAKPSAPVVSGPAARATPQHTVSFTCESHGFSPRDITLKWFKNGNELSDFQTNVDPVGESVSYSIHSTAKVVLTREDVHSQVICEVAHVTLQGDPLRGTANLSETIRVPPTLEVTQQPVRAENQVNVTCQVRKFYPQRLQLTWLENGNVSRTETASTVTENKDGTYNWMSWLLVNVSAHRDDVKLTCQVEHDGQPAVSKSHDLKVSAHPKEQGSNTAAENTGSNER
T3 sequence (Q5TFQ8 30-371 limits assumed): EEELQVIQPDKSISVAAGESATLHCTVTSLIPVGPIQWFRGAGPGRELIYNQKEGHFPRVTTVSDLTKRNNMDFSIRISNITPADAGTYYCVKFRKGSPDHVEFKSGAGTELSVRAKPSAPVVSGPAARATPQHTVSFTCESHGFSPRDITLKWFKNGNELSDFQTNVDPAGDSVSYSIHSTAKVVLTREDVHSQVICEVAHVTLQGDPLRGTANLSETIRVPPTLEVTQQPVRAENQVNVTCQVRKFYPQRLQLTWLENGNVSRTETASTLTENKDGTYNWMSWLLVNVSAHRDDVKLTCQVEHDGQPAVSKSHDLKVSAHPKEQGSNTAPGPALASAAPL
T2 sequence (Q9P1W8 29-360 limits assumed): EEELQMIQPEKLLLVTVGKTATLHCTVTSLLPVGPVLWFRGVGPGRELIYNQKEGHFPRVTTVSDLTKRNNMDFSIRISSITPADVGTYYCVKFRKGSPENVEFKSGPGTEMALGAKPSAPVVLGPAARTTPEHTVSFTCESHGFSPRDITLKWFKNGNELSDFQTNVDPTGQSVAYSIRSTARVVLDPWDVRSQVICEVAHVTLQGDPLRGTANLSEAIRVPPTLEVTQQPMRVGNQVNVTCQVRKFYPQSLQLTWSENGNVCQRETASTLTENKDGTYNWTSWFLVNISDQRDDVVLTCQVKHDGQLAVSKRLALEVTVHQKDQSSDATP
Chain of human SIRPβ1v1 (huSIRPβ1v1) (human) (O00241 30-371): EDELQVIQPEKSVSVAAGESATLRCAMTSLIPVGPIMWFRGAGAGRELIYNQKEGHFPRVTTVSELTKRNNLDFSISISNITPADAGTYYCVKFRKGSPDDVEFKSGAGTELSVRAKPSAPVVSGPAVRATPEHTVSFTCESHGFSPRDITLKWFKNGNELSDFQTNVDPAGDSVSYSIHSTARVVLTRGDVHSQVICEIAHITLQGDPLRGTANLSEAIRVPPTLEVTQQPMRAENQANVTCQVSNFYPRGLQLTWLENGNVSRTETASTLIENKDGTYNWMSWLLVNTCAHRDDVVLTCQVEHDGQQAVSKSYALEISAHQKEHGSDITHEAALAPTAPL
Chain of human SIRPαBIT expressed on cells (human) (P78324 31-504): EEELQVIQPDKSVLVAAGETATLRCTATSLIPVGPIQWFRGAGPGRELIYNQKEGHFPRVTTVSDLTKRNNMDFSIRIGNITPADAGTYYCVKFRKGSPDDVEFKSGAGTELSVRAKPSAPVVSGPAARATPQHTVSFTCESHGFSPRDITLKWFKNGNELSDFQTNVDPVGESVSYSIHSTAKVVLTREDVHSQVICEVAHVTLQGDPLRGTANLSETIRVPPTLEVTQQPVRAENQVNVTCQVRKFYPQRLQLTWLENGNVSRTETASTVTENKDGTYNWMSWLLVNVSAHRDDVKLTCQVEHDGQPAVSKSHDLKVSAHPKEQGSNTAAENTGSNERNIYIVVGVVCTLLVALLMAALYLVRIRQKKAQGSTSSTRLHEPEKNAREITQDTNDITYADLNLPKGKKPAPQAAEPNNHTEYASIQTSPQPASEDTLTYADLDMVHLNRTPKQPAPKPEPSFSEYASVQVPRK

Kd [1]: 2.6 nM
Kd [2]: 2.2 nM
Kd (human SIRPγ (huSIRPγ) [3]): 49 nM
Molecule: SE5A5 (antibody)

EC50 [4]: 0.021 µg/mL
EC50 [5]: 0.039 µg/mL
EC50 [6]: 0.058 µg/mL
EC50 (human SIRPγ (huSIRPγ) [7]): 0.043 µg/mL
EC50 [8]: 0.305 µg/mL
B1: anti-SIRPα antibody 1 (antibody, human IgG1, kappa, L234A L235A, V domains shown)
VH: QSVEESGGRLVTPGTPLTLTCTVSGIDLSSYAMSWVRQAPGKGLEWIGIISSGGITYYASWAKGRFTISKTSTTVDLKIPSPTTEDTATYFCARSLWAASNYYMALWGPGTLVTVSS
VL: AIKMTQTPASVSAAVGGTVSINCQASEDIESYLAWYQQKPGQPPKLLIYRASTLASGVSSRFKGSGSGTQFTLTISDLESADAATYYCLGDYYSSSGDTGAFGGGTEVVVKR
notes: Rabbit variable regions on human IgG1 LALA / kappa

EC50 [9]: 0.09 µg/mL
Kd [1]: < 0.01 nM
Kd [2]: 0.011 nM
Kd (human SIRPγ (huSIRPγ) [3]): < 0.01 nM
B2: KWAR23 huIgG1LALA (antibody, V domains shown)
VH: EVQLQQSGAELVKPGASVKLSCTASGFNIKDYYIHWVQQRTEQGLEWIGRIDPEDGETKYAPKFQDKATITADTSSNTAYLHLSSLTSEDTAVYYCARWGAYWGQGTLVTVSS
VL: QIVLTQSPAIMSASPGEKVTLTCSASSSVSSSYLYWYQQKPGSSPKLWIYSTSNLASGVPARFSGSGSGTSYSLTISSMEAEDAASYFCHQWSSYPRTFGAGTKLELK

Kd [1]: < 0.01 nM
Kd [2]: < 0.01 nM
Kd (human SIRPγ (huSIRPγ) [3]): < 0.01 nM
B3: KWAR23 mouse IgG2a (antibody, V domains shown)
VH: B2 VH
VL: B2 VL

EC50 [4]: 0.009 µg/mL
EC50 [10]: 0.013 µg/mL
EC50 [9]: 0.25 µg/mL
EC50 [5]: 0.009 µg/mL
EC50 [6]: 0.017 µg/mL
EC50 (human SIRPγ (huSIRPγ) [7]): 0.034 µg/mL
EC50 [8]: 0.011 µg/mL
B4: 29AM4-5huIgG1LALA (antibody, V domains shown)
VH: EVQLVESGGGLVQPGGSLRLSCAASGFNISYYFIHWVRQAPGKGLEWVASVYSSFGYTYYADSVKGRFTISADTSKNTAYLQMNSLRAEDTAVYYCARFTFPGLFDGFFGAYLGSLDYWGQGTLVTVSS
VL: DIQMTQSPSSLSASVGDRVTITCRASQSVSSAVAWYQQKPGKAPKLLIYSASSLYSGVPSRFSGSRSGTDFTLTISSLQPEDFATYYCQQAVNWVGALVTFGQGTKVEIKR
notes: HAVT20 leader left out

EC50 [4]: 0.02 µg/mL
EC50 [10]: 0.014 µg/mL
EC50 [9]: 0.17 µg/mL
EC50 [11]: 0.21 µg/mL
EC50 [6]: > 100 µg/mL
EC50 (human SIRPγ (huSIRPγ) [7]): > 100 µg/mL
EC50 [8]: 0.335 µg/mL
Kd [1]: < 0.01 nM
EC50 [12]: 0.07 µg/mL
B5: anti-SIRPα antibody 7 (antibody, human IgG1, kappa, L234A L235A, V domains shown)
VH: RSVEESGGRLVTPGTPLTLTCTVSGFSLSSHGISWVRQAPGKGLEYIGTIGTGVITYFASWAKGRFTGSKTSTTVDLKITSPTTEDTATYFCARGSAWNDPFDPWGPGTLVTVSS
VL: ALVMTQTPASVSAAVGGTVTTKCQASQSVYGNNDLAWYQHKPGQPPKLLIYLASTLATGVPSRFSGSGSGTQFTLTITGVQSDDAATYYCLGGGDDEADNVFGGGTEVVVKR
notes: Chimeric: rabbit variable regions on human IgG1 LALA / kappa; also called chimeric antibody 7

EC50 [9]: 0.23 µg/mL
B6: anti-SIRPα antibody 16 humanized (antibody, human IgG1, kappa, L234A L235A, V domains shown)
VH: B5 VH
VL: DIEMTQSPSSVSASVGDRVTLTCQASQSVYGNNDLAWYQQKPGQAPKLLIYLASTLATGVPSRFSGSGSGTDFTLTISSLQPEDFATYYCLGGGDDEADNVFGGGTKVEIKR

EC50 [9]: 0.16 µg/mL
B7: anti-SIRPα antibody 15 humanized (antibody, human IgG1, kappa, L234A L235A, V domains shown)
VH: B5 VH
VL: B6 VL with D1E, I2L, E3V, V11L, L21I, Q44E, S79G, P82S, G104Q

EC50 [4]: 0.02 µg/mL
EC50 [10]: > 100 µg/mL
EC50 [5]: 0.021 µg/mL
EC50 [6]: 0.024 µg/mL
EC50 (human SIRPγ (huSIRPγ) [7]): > 100 µg/mL
EC50 [8]: 0.033 µg/mL
B8: anti-SIRPα antibody 6 (antibody, human IgG1, kappa, L234A L235A, V domains shown)
VH: QSVEESGGRLVTPGTPLTLTCTVSGIDLSSYTMTWVRQAPGKGLEWIGIIYAGGSTAYASWAKGRFTISKTSTTVDLKITSPTTEDTATYFCARSSSDGYDYFNIWGPGTLVTVSL
VL: GVVMTQTPSSVSAAVGGTVTINCQASQSIGSWLAWYQQKPGQPPKLLIYQASKLASGVPSRFSGRGSGTHFTLTISDVQSDDAATYYCQQTVTAASNVDNAFGGGTEVVVKR
notes: as for B1

EC50 [4]: 0.026 µg/mL
EC50 [10]: > 100 µg/mL
EC50 [9]: 0.11 µg/mL
EC50 [5]: 0.023 µg/mL
EC50 [6]: 0.047 µg/mL
EC50 (human SIRPγ (huSIRPγ) [7]): > 100 µg/mL
EC50 [8]: 0.03 µg/mL
B9: anti-SIRPα antibody 9 (antibody, human IgG1, kappa, L234A L235A, V domains shown)
VH: QSMEESGGRLVTPGTPLTLTCTASGFSLSNYGVSWVRQAPGKGLEWIGIIYGGSDITAYASWAKGRFTISKTSTTVDLTITSPTTEDTATYFCAKSYTNGMDYYNIWGPGTLVTVSL
VL: AFDLTQTPSSVEAPVGGTVIIKCQASQSISSYLAWYQQKPGQPPKLLIYSASTLASGVSSRFKGSGSETQFPLTISDLESADAATYYCQSYYGSRSNVFGGGTEVVVKR
notes: as for B1
